Data as given in US20020146805.

System: PFEK-protease T-6xHIS zymogen
Sequence (chain, as listed by the source): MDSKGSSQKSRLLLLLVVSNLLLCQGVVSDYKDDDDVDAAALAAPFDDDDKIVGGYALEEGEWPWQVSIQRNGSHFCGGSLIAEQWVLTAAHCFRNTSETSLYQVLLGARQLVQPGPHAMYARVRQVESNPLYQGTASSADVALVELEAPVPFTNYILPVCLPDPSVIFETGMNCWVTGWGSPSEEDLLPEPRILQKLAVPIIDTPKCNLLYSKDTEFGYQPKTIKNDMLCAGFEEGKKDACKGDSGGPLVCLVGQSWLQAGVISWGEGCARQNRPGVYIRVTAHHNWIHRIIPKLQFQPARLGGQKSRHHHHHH

Substance: enterokinase
- cleavage of the zymogen (SDS-PAGE and anti-FLAG Western blot): quantitative cleavage of the expressed and purified zymogen to generate the processed and activated protease
